Measured values taken from paper PMC7470945, “DNA backbone interactions impact the sequence specificity of DNA sulfur-binding domains: revelations from structural analyses”.

T1: SBDSco E156R (Streptomyces coelicolor, UniProt Q9L0M9 90-250, E156R)
T1 sequence: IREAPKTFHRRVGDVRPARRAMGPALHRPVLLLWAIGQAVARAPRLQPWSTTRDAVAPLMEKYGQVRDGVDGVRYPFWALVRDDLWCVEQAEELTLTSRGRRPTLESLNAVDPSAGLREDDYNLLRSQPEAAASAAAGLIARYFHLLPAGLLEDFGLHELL

T2: SBDSco E156Q (Streptomyces coelicolor, UniProt Q9L0M9 90-250, E156Q)
T2 sequence: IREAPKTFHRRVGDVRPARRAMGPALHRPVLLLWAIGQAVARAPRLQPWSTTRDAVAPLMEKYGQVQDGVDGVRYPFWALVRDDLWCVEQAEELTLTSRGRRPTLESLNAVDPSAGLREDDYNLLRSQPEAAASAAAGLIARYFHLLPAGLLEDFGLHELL

T3: SBDSco E156L (Streptomyces coelicolor, UniProt Q9L0M9 90-250, E156L)
T3 sequence: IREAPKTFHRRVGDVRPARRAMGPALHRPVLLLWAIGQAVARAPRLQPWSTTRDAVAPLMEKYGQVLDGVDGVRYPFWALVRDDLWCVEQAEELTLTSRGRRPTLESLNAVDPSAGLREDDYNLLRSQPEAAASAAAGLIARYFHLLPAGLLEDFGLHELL

T4: SBDSco E156D (Streptomyces coelicolor, UniProt Q9L0M9 90-250, E156D)
T4 sequence: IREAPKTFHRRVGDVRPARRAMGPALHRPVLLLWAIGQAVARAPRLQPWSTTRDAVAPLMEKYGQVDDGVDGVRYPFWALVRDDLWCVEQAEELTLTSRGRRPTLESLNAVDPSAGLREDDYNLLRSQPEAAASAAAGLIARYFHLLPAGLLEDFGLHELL

T5: SBDSco (SBD of ScoMcrA) (Streptomyces coelicolor, UniProt Q9L0M9 90-250)
T5 sequence: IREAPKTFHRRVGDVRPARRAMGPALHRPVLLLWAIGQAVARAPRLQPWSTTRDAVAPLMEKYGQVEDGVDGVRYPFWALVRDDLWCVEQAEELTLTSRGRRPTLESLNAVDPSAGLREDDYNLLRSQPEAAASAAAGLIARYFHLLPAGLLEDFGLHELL

T6: SBDSco E156K (Streptomyces coelicolor, UniProt Q9L0M9 90-250, E156K)
T6 sequence: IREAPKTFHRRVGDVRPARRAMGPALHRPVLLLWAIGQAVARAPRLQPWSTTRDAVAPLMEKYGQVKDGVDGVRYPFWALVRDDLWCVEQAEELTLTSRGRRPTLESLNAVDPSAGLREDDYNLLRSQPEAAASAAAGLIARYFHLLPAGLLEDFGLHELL

T7: SBDSco E156R/D157R (Streptomyces coelicolor, UniProt Q9L0M9 90-250, E156R;D157R)
T7 sequence: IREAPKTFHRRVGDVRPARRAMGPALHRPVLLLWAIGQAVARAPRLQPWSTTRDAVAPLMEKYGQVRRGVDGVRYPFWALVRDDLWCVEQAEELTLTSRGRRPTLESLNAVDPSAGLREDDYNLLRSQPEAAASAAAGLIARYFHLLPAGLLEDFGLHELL


Tests used:
Test in all cases: fluorescence polarization; FP: 20 mM Tris-HCl pH 8.0, 50 mM NaCl, 5% glycerol, 1 mM DTT, 5 nM probe, room temperature; EMSA: 20 mM Tris-HCl pH 8.0, 100 mM NaCl, 5% glycerol, room temperature, protein 4x DNA
[1] = target: T1, SBDSco E156R; settings: protein: recombinant; tags: 6xHis; label: 5'-FAM on one strand (FP); blunt
[2] = target: T2, SBDSco E156Q; settings: protein: recombinant; tags: 6xHis; label: 5'-FAM on one strand (FP); blunt
[3] = target: T3, SBDSco E156L; settings: protein: recombinant; tags: 6xHis; label: 5'-FAM on one strand (FP); blunt
[4] = target: T4, SBDSco E156D; settings: protein: recombinant; tags: 6xHis; label: 5'-FAM on one strand (FP); blunt
[5] = target: T5, SBDSco (SBD of ScoMcrA); settings: protein: recombinant; tags: N-terminal 6xHis (pET28a); label: 5'-FAM on one strand (FP); blunt
[6] = target: T6, SBDSco E156K; settings: protein: recombinant; tags: 6xHis; label: 5'-FAM on one strand (FP); blunt
[7] = target: T7, SBDSco E156R/D157R; settings: protein: recombinant; tags: 6xHis; label: 5'-FAM on one strand (FP); blunt
[8] = target: SBDSpr (SBD of SprMcrA) (Streptomyces pristinaespiralis, UniProt A0A0M4DML1 1-165); settings: protein: recombinant, tags: N-terminal 6xHis (pET28a), blunt; for Kd: label: 5'-FAM on one strand (FP); for binding result: label: 5'-FAM on one strand

| Binder | Kd [1] [nM] | Kd [2] [nM] | Kd [3] [nM] | Kd [4] [nM] | Kd [5] [nM] | Kd [6] [nM] | Kd [7] [nM] | Kd [8] [nM] | binding result [8] |
| --- | --- | --- | --- | --- | --- | --- | --- | --- | --- |
| PT-GATC-10 RP (hemi-PT) (dsDNA, RP phosphorothioate between G4 and A5 of strand 1) DNA 1: GATGATCCTA DNA 2: TAGGATCATC | 346 ± 17 | 1020 ± 49 | 791 ± 42 | 1320 ± 99 | 1090 ± 58 | 370 ± 14 | 192 ± 12 | 38 ± 8 |  |
| PT-CCA-10 SP (hemi-PT) (dsDNA, SP phosphorothioate between C5 and C6 of strand 1) DNA 1: GAACCCAAGC DNA 2: GCTTGGGTTC |  |  |  |  |  |  |  |  | no binding |
| PT-GATC-10 SP (hemi-PT) (dsDNA, SP phosphorothioate between G4 and A5 of strand 1) DNA 1: GATGATCCTA DNA 2: TAGGATCATC |  |  |  |  |  |  |  |  | no binding |
| PT-CCA-10 RP (hemi-PT) (dsDNA, RP phosphorothioate between C5 and C6 of strand 1) DNA 1: GAACCCAAGC DNA 2: GCTTGGGTTC |  |  |  |  |  |  |  |  | no binding |
| PT-GAAC-10 RP (hemi-PT) (dsDNA, RP phosphorothioate between G4 and A5 of strand 1) DNA 1: GGCGAACGTG DNA 2: CACGTTCGCC | 267 ± 15 | 618 ± 43 | 499 ± 37 | 846 ± 74 | 567 ± 37 | 297 ± 19 | 183 ± 9 | 95 ± 25 |  |
